Measurements published in patent publication US11123408B2, “Compositions and methods for treating nonsteroidal anti-inflammatory drug (NSAID) associated coagulopathy, thrombocytopenia, glanzmann's thrombasthenia, and/or thrombosis” (YALE UNIVERSITY, priority 2011, dated 2021).

Key:
[1] = system: platelets of a patient donor with a mild platelet storage pool disorder; experiment: LTA in platelet rich plasma of a patient donor with a mild platelet storage pool disorder; format: cell-based, human; conditions: 50 nM NPP4; 2.5 μM ADP; without NPP4 approximately 40%
Experimental: Platelet aggregation was determined by measuring the change in light transmittance of stirred PRP over time after addition of various agonists. Prior to each experiment the aggregometer was standardized to reflect 100% and 0% light transmittance with PPP and PRP, respectively, from the donor whose platelets were used in each specific experiment. 500 μL PRP was added to cuvettes containing a magnetic stir bar and allowed to pre-warm to 37° C. in the aggregometer wells for 3 minutes prior to initiating aggregation reactions which were then conducted at 37° C. Aggregation reactions were initiated by direct addition of agonists and/or enzymes to warmed, stirred PRP, and were monitored for an increase in light transmittance for 10 minutes. The increase in light transmittance is directly proportional to the amount of aggregation and is amplified and digitized into a computer (HP Compaq, Hewlett-Packard, Palo Alto, Calif.) with the AGGRO/LINK8 for Windows software (Chrono-Log Corporation, Havertown, Pa.) to generate aggregation curves. […] The platelet aggregometry experiments for all concentrations of MRS 2395 (including the 0 μM point) were conducted with the plasma adjusted to a final concentration of 10% DMSO to solubilize the inhibitor.
NPP4 rescues platelets exposed to NSAIDs. […]

[2] = Ap3A hydrolysis by NPP enzymes (linked malachite green assay, absorbance change at 259 nm, HPLC); format: biochemical
Experimental: NPP4 nucleotide substrates were identified by directly detecting the free phosphate (Pi) product using malachite green (ADP substrate) or by a linked hydrolysis assay with alkaline phosphatase combined with malachite green (lipid substrates and nucleotide substrates without terminal P1) to measure released Pi. 50 μM substrate P1 equivalents (e.g. 25 μM ADP) were treated with 50 nM NPP4 for 1 hr 37 min (lipids) or 3 hr 15 min (all other substrates). For substrates without terminal phosphates, 10 units of calf intestinal alkaline phosphatase (M0290S, 10,000 units/mL, New England Biolabs, Ipswich, Mass.) was added for a final reaction volume of 50 μL. 100 μL of malachite green (BIOMOL GREEN™, Enzo Life Sciences, Plymouth Meeting, Pa.) was added to quench the reactions. The amount of phosphate released was measured by absorbance at 620 nm by a Biotek Synergy Mx plate reader (Winooski, Vt.) in 96-well plates (3679, Corning Inc., Corning, N.Y.) and compared against a phosphate standard curve.
The kinetics of the steady state Ap3A/Ap4A cleavage by NPP4 was measured from time courses of absorbance change at 259 nm using a UV spectrophotometer with a 0.1 cm optical path length cuvette or a stopped-flow device with a 0.2 cm optical path length cell. The enzymology reactions in 50 mM Tris pH 8.0, 140 mM NaCl, 5 mM KCl, 1 mM MgCl2 and 1 mM CaCl2 were started by addition of 1 μM NPP4 to varying concentrations of Ap3A/Ap4A (up to 800 μM) solution (UV spectrophotometer) or by rapid mixing of NPP4 and Ap3A/Ap4A (stopped-flow). The substrate concentrations higher than 800 μM have absorption too high to be measured by a UV spectrophotometer and stopped-flow, and were therefore measured by HPLC. […] Therefore, the rate of a product production or enzyme turnover measured by the absorption change assay can be calculated by the rate of absorption change
[formula] according to the following formula;
[formula] where Δl is optical path length. The following absorption coefficients were used: Ap3A: 25.75 mM^−1 cm^−1. Ap4A: 25.4 mM^−1 cm^−1. AMP, ADP, and ATP: 15.4 mM^−1 cm^−1. ADP Receptor Inhibitor Assay for NPP4 Inhibition
The HPLC protocol used to measure Ap3A/Ap4A cleavage by NPP4 and for product identification is modified from that of Stocchi et al. (1985, Anal Biochem 146:118-24). The reactions containing varying concentrations of Ap3A/Ap4A in the same buffer as in the absorbance change assay were started by addition of 0.2-1 μM NPP4 and quenched at various time points by equal volume of 3 M formic acid, or 0.5 N KOH and re-acidified by glacial acetic acid to pH 6. The quenched reaction solution was diluted systematically and loaded a HPLC system (Waters, Milford Mass.) and substrates and products were monitored by UV absorbance at 254 or 259 nm. Substrates and products were separated on a C18, 5 μm 250×4.6 mm HPLC column (Higgins Analytical, Mountain View, Calif.), using 15 mM ammonium acetate pH 6.0 solution, with a 0% to 10% (or 20%) methanol gradient. The products and substrate were quantified according to the integration of their correspondent peaks and the formula:
[formula] where [substrate]0 is the initial substrate concentration. The extinction coefficients of Ap3A, Ap4A, AMP, ADP and ATP used in the formula were the same as those used in absorption change assay. If monitoring at 254 nm, substrate and product standards run on the same day as the reactions were used to convert integrated product/substrate peak areas to concentrations. […]

B1: NPP4: soluble recombinant extracellular domain of human NPP4 (NCBI AAH18054.1, residues 1-407 of SEQ ID NO:1), expressed in insect cells (protein, listed as Homo sapiens)
chain: MKLLVILLFSGLITGFRSDSSSSLPPKLLLVSFDGFRADYLKNYEFPHLQNFIKEGVLVEHVKNVFITKTFPNHYSIVTGLYEESHGIVANSMYDAVTKKHFSDSNDKDPFWWNEAVPIWVTNQLQENRSSAAAMWPGTDVPIHDTISSYFMNYNSSVSFEERLNNITMWLNNSNPPVTFATLYWEEPDASGHKYGPEDKENMSRVLKKIDDLIGDLVQRLKMLGLWENLNVIITSDHGMTQCSQDRLINLDSCIDHSYYTLIDLSPVAAILPKINRTEVYNKLKNCSPHMNVYLKEDIPNRFYYQHNDRIQPIILVADEGWTIVLNESSQKLGDHGYDNSLPSMHPFLAAHGPAFHKGYKHSTINIVDIYPMMCHILGLKPHPNNGTFGHTKCLLVDQWCINLPEA
Q: What does the source list for B1?
A: maximum amplitude of aggregation [1]: approximately 65%; Ap3A cleavage / hydrolysis (qualitative) ([2]; linked assay or steady state enzymatic studies): detected cleavage; maximum catalytic turnover rate (kcat) for Ap3A ([2]; substrate Ap3A): ~4 s⁻¹; kcat, Ap3A Hydrolysis by NPP4 ([2]; substrate Ap3A, steady state): 4.2 s^−1NPP4^−1; Km ([2]; substrate Ap3A, steady state, read-out: KM, Ap3A Hydrolysis by NPP4): 843 µM
